Measured values reported in PMC12395300 (ACS Central Science, 2025).

Target: PD1 (as used in the ELISA) (Mus musculus, UniProt Q02242)
Sequence (Q02242 25-288): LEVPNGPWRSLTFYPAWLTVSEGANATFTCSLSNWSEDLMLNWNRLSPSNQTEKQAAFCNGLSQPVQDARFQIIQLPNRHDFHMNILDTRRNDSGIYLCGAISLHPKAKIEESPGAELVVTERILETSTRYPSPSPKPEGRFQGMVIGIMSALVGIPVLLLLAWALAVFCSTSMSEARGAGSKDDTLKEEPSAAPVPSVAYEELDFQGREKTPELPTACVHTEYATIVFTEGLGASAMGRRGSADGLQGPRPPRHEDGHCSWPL

binding result: binds
B1: anti-hPD1 (pembrolizumab) (antibody, V domains shown)
VH: QVQLVQSGVEVKKPGASVKVSCKASGYTFTNYYMYWVRQAPGQGLEWMGGINPSNGGTNFNEKFKNRVTLTTDSSTTTAYMELKSLQFDDTAVYYCARRDYRFDMGFDYWGQGTTVTVSS
VL: EIVLTQSPATLSLSPGERATLSCRASKGVSTSGYSYLHWYQQKPGQAPRLLIYLASYLESGVPARFSGSGSGTDFTLTISSLEPEDFAVYYCQHSRDLPLTFGGGTKVEIK
